# Experimental data: US20260258115A1 (MAPP BIOPHARMACEUTICAL, published 2026)
# B1: ADI-19479 (antibody, V domains shown)
# VH: QVQLVQSGAEVKKPGSSVKVSCKASGGTFSSNAINWVRQAPGQGLEWMGGIIPIFGTANYAQKFQGRVTITTDESTSTAYMELSSLRSEDTAVYYCATTFYYGSGADYWGQGTLVTVSS
# VL: DIQMTQSPLSLPVTLGQPASISCRSSQSLVYSDGNMYLSWFQQRPGQSPRRLIYKVSNRDSGVPDRFSGSGSGTDFTLKISRVEAEDVGVYYCMQGTHWWTFGQGTKVEIK
# notes: full-length IgG
# B2: ADI-25575 (antibody, V domains shown)
# VH: EVQLVESGAEVKKPGASVKVSCKASGYTFTSYYMHWVRQAPGQGLEWMGIINPSGGSTSYAQKFQGRVTMTRDTSTSTVYMELSSLRSEDTAVYYCARGPYDSSGYCDYWGQGTLVTVSS
# VL: SYELTQPPSVSVAPGKTARITCGGNNIGSKSVHWYQQKPGQAPVLVVYDDSDRPSGIPERFSGSNSGNTATLTISRVEAGDEADYYCQVWDSSSDQVFGGGTKLTVL
# notes: full-length IgG
# B3: ADI-19511 (antibody, V domains shown)
# VH: QITLKESGPTLVKPTQTLTLTCTFSGFSLSTSGVGVGWIRQPPGKALEWLALIYWDDDKRYSPSLKSRLTITKDTSKNQVVLTMTNMDPVDTATYYCAHSVYYDFWSGYYVPNYFDYWGQGTLVTVSS
# VL: DIQMTQSPSSLSASVGDRVTITCRASQGIRNDLGWYQQKPGKAPKRLIYAASSLQSGVPSRFSGSGSGTEFTLTISSLQPEDFATYYCLQHNSYPLTFGGGTKVEIK
# notes: full-length IgG
# B4: ADI-22760 (antibody, V domains shown)
# VH: EVQLVESGGGLVQPGRSLRLSCVASGFTFDDYAMHWVRQAPGKGLEWVSGINWNSGGIGYADSVKGRFTISRDNTKNSLYLQMNSLRAEDTALYYCAKDGSALMGYGVEVWGQGTTVTVSS
# VL: SYELTQPPSASGTPGQRVTISCSGSNSNIGNNYVYWYQQLPGTAPKLLIYRNNQWPSGVPDRFSASKSGTSASLAISGLRSEDEADYYCASWDDSLSALVFGGGTKLTVL
# notes: full-length IgG; also called Ab 340
# B5: ADI-24793 (antibody, V domains shown)
# VH: QVQLVQSGAEVKKPGESLKISCKGSGYSFTSYWIGWVRQMPGKGLEWMGIIYPGDSDTRYSPSFQGQVTISADKSISTAYLQWSSLKASDTAMFYCVMGSYSYYFDYWGQGTLVTVSS
# VL: NFMLTQPHSVSESPGKTVTISCTRSSGSIASNYVQWYQQRPGSAPTTVIYEDNLRPSGVPDRFSGSIDSSSNSASLTISGLKTEDEADYYCQSYDSSNQVFGGGTKLTVL
# notes: full-length IgG
# B6: ADI-22772 (antibody, V domains shown)
# VH: EVQLVESGGGVVQPGRSLRLSCAASGFTFSSYAMHWVRQAPGKGLEWVAVISYDGSNKYYADSVKGRFTISRDNSKNTLYLQMNSLRAEDTAVYYCARAVEQQLFIWYYGMDVWGQGTTVTVSS
# VL: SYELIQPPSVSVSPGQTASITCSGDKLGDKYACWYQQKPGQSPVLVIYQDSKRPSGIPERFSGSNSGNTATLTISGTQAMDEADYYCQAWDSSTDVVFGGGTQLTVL
# notes: full-length IgG
# B7: ADI-22763 (antibody, V domains shown)
# VH: EVQLVESGGGLIQPGGSLRLSCAASGFTFSTYEMNWVRQAPGKGLEWVSSISTSGSTKDYAGSVKGRFTVSRDNAKNSLYLQMNSLRAEDTAIYYCARVYYYDSSGYYLALFDYWGQGTLVTVSS
# VL: EIVLTQSPSSLSASVGDRVTITCRASQSIASYLNWYQQKPGKAPKLLIYAASSLRSGVPSRFSGSGSGTDFTLTISSLQPEDFATYYCQQSYSTPSLTFGGGTKLEIK
# notes: full-length IgG
# B8: ADI-25467 (antibody, V domains shown)
# VH: GVQLVESGPGLVKPSETLSLTCTVSGGSISSYYWSWIRQPPGKGLEWIGYIYYSGSTNYNPSLKSRVTISVDTSKNQFSLKLSSVTAADTAVYYCARGYYYDSSGYYPNDAFDIWGQGTMVTVSS
# VL: not shown
# notes: full-length IgG
# B9: ADI-24852 (antibody, V domains shown)
# VH: QVQLVESGAEVKKPGASVKVSCKASGYTFTSYAIHWVRQAPGQRLEWMGWINAGNGNTKYSQKFQGRVTITRDTSASTAYMELSSLRSEDTAVYYCASEESGYFDYWGQGTLVTVSS
# VL: not shown
# notes: full-length IgG; also called Ab 413
# B10: ADI-19476 (antibody, V domains shown)
# VH: QVQLVESGPTLVKPTQTLTLTCTFSGFSLSTSRVGVGWIRQPPGKALEWLALIYWDDDKRYSPSLKSRLTITKDTSKNQVVLTMTNMDPVDTARYYCAHRSTYDILGGYYYFDYWGQGTLVTVSS
# VL: QPVLTQPRSVSGSPGQSVTISCTGTSSDVGGYNYVSWFQQHPGKAPKLMIYDVSKRPSGVPNRFSGSKSGNTASLTISGLQAEDEADYFCCSYAGTYEVFGGGTKLTVL
# notes: full-length IgG
# B11: ADI-19486 (antibody, V domains shown)
# VH: QVQLQESGPGLVKPSETLSLTCSVSGGSLTSYYWSWIRQPPGKGLEWIGYIYYSGSTNYNPSLKSRLTISVDTSKNQFSLKLSSVTAADTAVYYCARVGGRGVINVFDYWGQGTLVTVSS
# VL: QPVLTQPASVSGSPGQSITISCTGTSSDVGGYNYVSWYQQHPGKAPKLMIYEVSNRPSGVSNRFSGSKSGNTASLTISGLQAEDEADYYCDSYRSNSASVVFGGGTKLTVL
# notes: full-length IgG
# B12: ADI-14372 (antibody, V domains shown)
# VH: QVQLLESGGGLVQPGGSLRLSCAASGFTFSNYAMGWVRQAPGQGLEWVSRISATGGSTHYADSVRGRFTISRDNSKNTLYLQMNSLKAEDTAVYYCAKDRGYSRNLTPDYWGQGTLVTVSS
# VL: ETTLTQSPSSLSASVGDRVTITCRASQGITNDLGWYQKKPGKAPKLLIYVASSLQSGVPSRFSGSGSGTDFTLTISSLQPEDFATYYCLQDYNYPITFGQGTKVDIK
# notes: full-length IgG; also called Ab 40
# B13: ADI-24803 (antibody, V domains shown)
# VH: EVQLLESGGGLVLPGGSLRLSCAASGFTFSSYAMSWVRQAPGKGLEWVSAISGSGIYTYYADSVKGRFTISRDNSKNTLYLQMSSLRAEDTAVYYCAKGSLGMAYSAFDIWGLGTTVTVSS
# VL: DIQLTQSPGTLSLSSGERATLSCRASQSVSSNYLAWYQQKPGQPPRLLIYGASSRATGIPDRFSGSGSGTDFTLTISRLEPEDFAVYYCQQYGSSPLTFGGGTKVDIK
# notes: full-length IgG
# B14: ADI-25587 (antibody, V domains shown)
# VH: QVQLVESGGGVVQPGRSLRLSCAASGFTFSSYGMHWVRQAPGKGLEWVAVIWYDGSNKYYADSVKGRFTISRDNSKNTLYLQMNSLRAEDTAVYYCARDSTYSEAFDIWGQGTMVTVSS
# VL: QSVLIQPASVSGSPGQSITISCTGTSSDVGGYNYVSWYQQHPGKAPKLMIYDVSNRPSGVSNRFSGSKSGNTASLTISGLQAEDEADYYCSSYTSSSTWVFGGGTKVTVL
# notes: full-length IgG
# B15: ADI-14379 (antibody, V domains shown)
# VH: EVQLLESGGGVVQPGRSLRLSCAASGFTFSSYAMHWVRQAPGKGLEWVAVIGNDGTNKYHADSVKGRFTISRDNSKNTLYLQMNSLRAEDTAVYYCARRRVGIMYSGSYWGGMDVWGQGTTVTVSS
# VL: SYELTQPPSVSVSPGQTASITCSGDKLGGKYVSWYQQKPGQSPVLVMYQDTRRPSGIPERLSGSNSGSTATLTISATQAMDEADYYCQAWDITTVHVVFGGGTKLTVL
# notes: full-length IgG; also called Ab 47
# B16: ADI-24834 (antibody, V domains shown)
# VH: QVQLVQSGGGLVQPGGSLRLSCAASGFTFSSYAMSWVRQAPGKGLEWVSTISGSGGSTYYADSVKGRFTISRDNSKNTLYLQMNSLRAEDTAVYYCATWKRWGSGYYYSYMDVWGKGTTVTVSS
# VL: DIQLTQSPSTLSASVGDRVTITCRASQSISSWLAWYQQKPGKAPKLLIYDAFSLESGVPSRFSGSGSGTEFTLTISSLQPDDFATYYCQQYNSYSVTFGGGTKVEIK
# notes: full-length IgG
# B17: ADI-19483 (antibody, V domains shown)
# VH: QVQLVQSGAEVKKPGESLKISCKGSGYSFTTYWIGWVRQMPGKGLEWMGIIFPGDSDTRYSPSFQGQVTISADKSISTAYLQWSSLKASDTAMYFCARSAFPFGFDIWGQGTMVTVSS
# VL: SYVLTQPHSVSESPGKTVTISCTRSSGSIASNYVQWYQQRPGSSPTTVIYEDHQRPSGVPDRFSGSIDSSSNSASLTISGLQTEDEADYYCQSYGSGNPWVFGGGTKVTVL
# notes: full-length IgG
# B18: ADI-19484 (antibody, V domains shown)
# VH: QVQLQESGSGLVKPSQTLSLTCVVSGGSISSGGNSWSWIRQPPGKGLEWIGYIYDSGNTYYNPSLKSRVTISVDRSKNQFSLKVSSVTAADTAVYYCARGAETGTTGWYDPWGQGTLVTVSS
# VL: DIRLTQSPSSLSASVGDRVTITCRASQTISSYLNWYQQKPGKAPRLLIYAASSLQSGVPSRFSGSGSGTDFTLTISSLQPEDFATYYCQQSYGTPRTFGQGTKVEIK
# notes: full-length IgG
# B19: ADI-24825 (antibody, V domains shown)
# VH: QVQLVQSGAEVKKPGASVKVSCKASGYTFTSYDINWVRQATGQGLEWMGWMNPNSGNTGYAQKFQGRVTMTRNTSISTAYMELSSLRSEDTAVYYCSSVGGYYYYGMDVWGQGTTVTVSS
# VL: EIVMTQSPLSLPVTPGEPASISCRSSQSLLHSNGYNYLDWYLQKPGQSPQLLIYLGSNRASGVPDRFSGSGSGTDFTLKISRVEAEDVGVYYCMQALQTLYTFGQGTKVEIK
# notes: full-length IgG
# B20: ADI-19505 (antibody, V domains shown)
# VH: QVQLVQSGAEVKKPGESLKISCKGSGYSFTNYWIGWVRQMPGKGLEWMGITYPGDSDTRYSPSFQGQVTISADKSISTAHLQWDSLKASDTAMYYCARLRCTGSICYDAFDIWGQGTTVTVSS
# VL: SYVLTQPLSVSVALGQTARITCGGNNIGSKNVHWYQQKPGQAPVLVIYRDNNRPSGIPERFSGSNSGNTATLTISRAQAGDEADYYCQVWDSSTGGDVFGAGTKVTVL
# notes: full-length IgG
# B21: ADI-24846 (antibody, V domains shown)
# VH: EVQLLESGGGLVKPGGSLRLSCAASGFTFSSYSMNWVRQAPGKGLEWVSSISSSSSYIYYADSVKGRFTISRDNAKNSLYLQMNSLRAEDTAVYYCARDDGILWLDYWGQGTLVTVSS
# VL: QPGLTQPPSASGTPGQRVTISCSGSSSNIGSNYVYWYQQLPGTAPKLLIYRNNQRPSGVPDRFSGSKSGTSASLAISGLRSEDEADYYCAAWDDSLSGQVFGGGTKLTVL
# notes: full-length IgG
# Tests used:
# [1] = target: T1, RSV postfusion F (postF), subtype A (respiratory syncytial virus subtype A, UniProt P03420 26-513); experiment: BLI, IgG
# T1 construct: also called Postfusion subtype A; F deltaFP
# [2] = target: T2, RSV postfusion F (postF), subtype B (respiratory syncytial virus subtype B); experiment: BLI, IgG
# T2 construct: also called Postfusion subtype B
# [3] = target: RSV F on RSV subtype A virus (mKate-RSV A2) (respiratory syncytial virus A2, UniProt P03420 26-574); experiment: cell-based or functional assay
# [4] = target: T1, RSV postfusion F (postF), subtype A; experiment: BLI
# [5] = target: T3, RSV prefusion F (preF), subtype B (respiratory syncytial virus subtype B); experiment: BLI, IgG
# T3 construct: also called Prefusion subtype B
Binder,Kd [1],Kd [2],Neut IC50 subtype A [3],binding result [4],Kd [5]
B1,3.69 nM,2.69 nM,,,
B2,,39.6 nM,5.64 µg/mL,,
B3,,15.3 nM,,no binding,
B4,1.19 nM,1.25 nM,,,3.07 nM
B5,,26.8 nM,,no binding,
B6,,50.2 nM,,no binding,
B7,0.319 nM,5.33 nM,,,10.8 nM
B8,25.3 nM,26.2 nM,,,
B9,9.57 nM,9.17 nM,,,19 nM
B10,0.801 nM,0.838 nM,,,
B11,0.525 nM,7.55 nM,,,
B12,0.659 nM,4.43 nM,,,
B13,1.2 nM,0.442 nM,,,
B14,9.23 nM,7.93 nM,,,
B15,3.29 nM,2.35 nM,,,
B16,0.211 nM,0.26 nM,,,0.732 nM
B17,0.321 nM,0.153 nM,,,1.77 nM
B18,0.369 nM,0.355 nM,,,8.92 nM
B19,30.1 nM,26 nM,,,
B20,4.94 nM,5.01 nM,,,44.4 nM
B21,,29.1 nM,,no binding,
